In paper PMC6294937, “Structure and architecture of immature and mature murine leukemia virus capsids” (Proceedings of the National Academy of Sciences of the …, 2018):
Values joined by “and” are separate entries in the source; they are usually repeats but may differ in a detail not shown here. Equal values may be shown once.

Tests used:
[1] = molecular target: MLV Gag polyprotein in immature virus particles (immature CA lattice) (murine leukemia virus (MLV)); experiment: cryo-EM structure; cryo-ET and subtomogram averaging of the CA layer in purified, fixed immature MLV particles (PR D32L); 79 particles, sixfold symmetry, 6.6 Å; crystal structures fitted as rigid bodies
[2] = molecular target: truncated MLV CA-CTD (residues 132–218, CA-CTDΔCAH) (murine leukemia virus (MLV)); experiment: crystal structure; X-ray, SAD with cobalt, 1.89 Å, space group P3(1)21; crystals grown at 20 °C, 37 mg/mL protein, 4% PEG 3350, 0.1 M Hepes pH 8.2, 5 mM each CoCl2, CdCl2, MgCl2, NiCl2
[3] = molecular target: the molecule itself; experiment: cryo-EM structure; cryo-ET and subtomogram averaging of the CA lattice in purified, fixed mature MLV particles; 134 virions; hexamer 7.2 Å, pentamer 8.6 Å; repeated with a second preparation (8.1 Å); crystal structures fitted as rigid bodies

## MLV Gag polyprotein in immature virus particles (immature CA lattice) (natural protein)
[1]
  stoichiometry N: 6

## truncated MLV CA-CTD (residues 132–218, CA-CTDΔCAH) (domain or fragment)
[2]
  stoichiometry N: 2

B1: MLV CA (capsid) protein in mature virus particles (mature CA lattice) (natural protein)
chain: PLRAGGNGQLQYWPFSSSDLYNWKNNNPSFSEDPGKLTALIESVLITHQPTWDDCQQLLGTLLTGEEKQRVLLEARKAVRGDDGRPTQLPNEVDAAFPLERPDWDYTTQAGRNHLVHYRQLLLAGLQNAGRSPTNLAKVKGITQGPNESPSAFLERLKEAYRRYTPYDPEDPGQETNVSMSFIWQSAPDIGRKLERLEDLKNKTLGDLVREAEKIFNKRETPEEREERIRRETEEKEERRRTEDEQKEKERDRRRHREMSKLL
notes: CA (capsid) protein of murine leukemia virus, the product of cleavage of Gag by the viral protease; 263 residues (CA-CTD printed as residues 132-263); numbers count on: the CA protein; also called mature MLV CA; mature CA hexamer; source: HEK293T, transfected with the infectious clone pRR390; in purified mature virus particles, fixed with 1% paraformaldehyde
[3]
  stoichiometry N: 6 and 5
